Results: patent US6451762B1 (Novo Nordisk A/S, priority 1997, dated 2002)

Legend:
[1] = Gel filtration on Sephacryl S-300 HR (aggregate formation, method 1); type: physicochemical; set-up: key to KAV: KAV=(VE-V0)/(VT-V0); fraction of available elution volume; conditions: Sephacryl S-300 HR, pH 7.4 eluent; Zinc free
[2] = biological target: Albumin (Homo sapiens, UniProt P02768); assay: Albumin binding constant; conditions: normalised using Lys^B29(N^ε tetradecanoyl) des(B30) human insulin as reference
[3] = Disappearance after subcutaneous injection in pigs; conditions: pigs
Text: The gel filtration experiment using the conditions prescribed in this section is the direct physico-chemical method to reveal the potential aggregate formation property of an insulin derivative. Disappearance after subcutaneous injection in pigs reflects the combination of the albumin binding and polymer formation properties of the insulin derivative, besides a variety of biological factors.

[4] = Gel filtration method 2 on Superose 6HR (HPLC, 37° C.); type: physicochemical; conditions: 140 mM NaCl, 10 mM tris, pH 7.4
Description: An alternative method to measure the capability of insulin derivatives of forming soluble high molecular weight aggregates was developed, suitable for HPLC equipment. The column dimensions, injection volume, and flow rate correspond to the first method, whereas the temperature is increased to 37° C. and the phosphate buffer is changed to trishydroxymethylaminomethan hydrochloride and additional sodium chloride. The aggregated state of insulin is defined to elute before the gel filtration standard aldolase like in the first method.

Human insulin [reference compound]
KAV [1]: 0.72 | Albumin binding Kass [2]: 0 (mol/l)^−1 | Disappearance T50% ([3]; subcutaneous injection, normalised using Lys^B29(N^ε tetradecanoyl) des(B30) human insulin as reference): (2) h | Disappearance in pigs, T50% ([3]; subcutaneous, normalised to Lys^B29(N^ε tetradecanoyl-) des(B30) human insulin (T50% = 14.3 h)): 2 h | KAV (Superose 6HR) 2Zn^2+/6 ins ([4]; 2 Zn2+/6 ins): 0.64 | KAV (Superose 6HR) 3Zn^2+/6 ins ([4]; 3 Zn2+/6 ins): 0.64
